Data published in article PMC11638004, “Phosphorylation of auxin signaling repressor IAA8 by heat-responsive MPKs causes defective flower development” (Plant Physiology, 2024).

How the values were obtained:
Test in all cases: pull-down; 2 μg GST-IAA8 or GST on glutathione-Sepharose-4B beads, 5 μg His-MPK added, overnight at 4°C; 50 mM Tris-HCl pH 7.5, 200 mM NaCl, 0.1 mM EDTA, 0.5 mM DTT, 1% Triton X-100; four washes; immunoblot with anti-His
Details in all cases: both partners purified
His-MPK3 = biological target: T1, His-MPK3 (Arabidopsis thaliana, UniProt Q39023 1-370)
T1 construct: The N-terminal position of the His tag is read from the name His-MPK3 and the vector pQE30; also called His-fused MPK3; source: E. coli M15, purified (Ni-NTA agarose); not shown: His, N-terminal, kept
T1 sequence (looked up): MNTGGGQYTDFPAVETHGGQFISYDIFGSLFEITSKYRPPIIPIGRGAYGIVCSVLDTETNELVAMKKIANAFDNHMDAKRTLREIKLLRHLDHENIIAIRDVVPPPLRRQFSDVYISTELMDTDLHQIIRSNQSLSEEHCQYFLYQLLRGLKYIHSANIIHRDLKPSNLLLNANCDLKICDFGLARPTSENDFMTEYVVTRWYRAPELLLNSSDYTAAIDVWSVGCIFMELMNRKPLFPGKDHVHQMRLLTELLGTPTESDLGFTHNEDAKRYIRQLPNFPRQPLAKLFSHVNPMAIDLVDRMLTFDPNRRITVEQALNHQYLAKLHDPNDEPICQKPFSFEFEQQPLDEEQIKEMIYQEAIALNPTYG

His-MPK6 = biological target: T2, His-MPK6 (Arabidopsis thaliana, UniProt Q39026 1-395)
T2 construct: The N-terminal position of the His tag is read from the name His-MPK6 and the vector pQE30; also called His-fused MPK6; source: E. coli M15, purified (Ni-NTA agarose); not shown: His, N-terminal, kept

His-MPK4 = biological target: T3, His-MPK4 (Arabidopsis thaliana, UniProt Q39024 1-376)
T3 construct: The N-terminal position of the His tag is read from the name His-MPK4 and the vector pQE30; also called His-fused MPK4; source: E. coli M15, purified (Ni-NTA agarose); not shown: His, N-terminal, kept
T3 sequence (looked up): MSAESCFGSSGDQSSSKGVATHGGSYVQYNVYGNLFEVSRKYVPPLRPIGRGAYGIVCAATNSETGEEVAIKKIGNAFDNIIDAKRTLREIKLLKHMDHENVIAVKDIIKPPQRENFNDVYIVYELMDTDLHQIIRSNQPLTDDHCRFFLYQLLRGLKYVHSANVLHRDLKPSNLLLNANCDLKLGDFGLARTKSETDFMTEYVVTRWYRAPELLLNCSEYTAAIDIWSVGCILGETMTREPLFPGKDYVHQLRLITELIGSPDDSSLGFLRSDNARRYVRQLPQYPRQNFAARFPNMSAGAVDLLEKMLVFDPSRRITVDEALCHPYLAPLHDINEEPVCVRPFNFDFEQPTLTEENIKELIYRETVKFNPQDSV

Measured: binding result

T2 sequence (Q39026 whole entry, the tested form may be a part): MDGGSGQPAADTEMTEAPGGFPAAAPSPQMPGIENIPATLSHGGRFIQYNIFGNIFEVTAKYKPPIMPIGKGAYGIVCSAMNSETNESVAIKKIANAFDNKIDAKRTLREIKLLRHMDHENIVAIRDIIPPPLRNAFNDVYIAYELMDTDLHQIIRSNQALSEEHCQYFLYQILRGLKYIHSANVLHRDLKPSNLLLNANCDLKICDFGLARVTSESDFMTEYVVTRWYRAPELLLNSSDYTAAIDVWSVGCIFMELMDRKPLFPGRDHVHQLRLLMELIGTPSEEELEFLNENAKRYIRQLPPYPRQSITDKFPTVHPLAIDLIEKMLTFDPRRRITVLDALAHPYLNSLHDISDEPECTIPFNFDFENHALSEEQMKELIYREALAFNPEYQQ

B1: GST-IAA8 (natural protein, Arabidopsis thaliana, UniProt Q38826 1-321, looked up)
chain: MSYRLLSVDKDELVTSPCLKERNYLGLSDCSSVDSSTIPNVVGKSNLNFKATELRLGLPESQSPERETDFGLLSPRTPDEKLLFPLLPSKDNGSATTGHKNVVSGNKRGFADTWDEFSGVKGSVRPGGGINMMLSPKVKDVSKSIQEERSHAKGGLNNAPAAKAQVVGWPPIRSYRKNTMASSTSKNTDEVDGKPGLGVLFVKVSMDGAPYLRKVDLRTYTSYQQLSSALEKMFSCFTLGQCGLHGAQGRERMSEIKLKDLLHGSEFVLTYEDKDGDWMLVGDVPWEIFTETCQKLKIMKGSDSIGLAPGAVEKSKNKERV
notes: IAA8 (Indole-3-Acetic Acid 8), Arabidopsis thaliana, At2g22670, full length, amplified from an Arabidopsis cDNA library and cloned into pGEX-4T-1; The N-terminal position of GST is read from the name GST-IAA8 and the vector pGEX-4T-1; also called GST-IAA8^WT; GST-fused IAA8; source: E. coli BL21 (DE3), purified (glutathione Sepharose-4B); not shown: GST, N-terminal, kept
binds: His-MPK3 | His-MPK6 | His-MPK4
